Here are results for 1 protein from patent US20100304465.

This data set deals with delta-plasminogen.
delta-plasminogen, sequence (chain, as listed by the source mutant): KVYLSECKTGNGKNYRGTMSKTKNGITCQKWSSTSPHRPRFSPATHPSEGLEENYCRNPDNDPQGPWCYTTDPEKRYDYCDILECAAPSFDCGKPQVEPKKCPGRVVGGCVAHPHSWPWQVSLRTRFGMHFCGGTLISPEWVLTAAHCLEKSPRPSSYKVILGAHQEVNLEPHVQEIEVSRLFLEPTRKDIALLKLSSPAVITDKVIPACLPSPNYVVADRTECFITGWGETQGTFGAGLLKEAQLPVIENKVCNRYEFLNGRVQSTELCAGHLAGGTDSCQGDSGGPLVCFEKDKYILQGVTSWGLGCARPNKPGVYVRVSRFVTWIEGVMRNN

B1: tissue Plasminogen Activator (protein)
chain: SYQVICRDEKTQMIYQQHQSWLRPVLRSNRVEYCWCNSGRAQCHSVPVKSCSEPRCFNGGTCQQALYFSDFVCQCPEGFAGKCCEIDTRATCYEDQGISYRGTWSTAESGAECTNWNSSALAQKPYSGRRPDAIRLGLGNHNYCRNPDRDSKPWCYVFKAGKYSSEFCSTPACSEGNSDCYFGNGSAYRGTHSLTESGASCLPWNSMILIGKVYTAQNPSAQALGLGKHNYCRNPDGDAKPWCHVLKNRRLTWEYCDVPSCSTCGLRQYSQPQFRIKGGLFADIASHPWQAAIFAKHRRSPGERFLCGGILISSCWILSAAHCFQERFPPHHLTVILGRTYRVVPGEEEQKFEVEKYIVHKEFDDDTYDNDIALLQLKSDSSRCAQESSVVRTVCLPPADLQLPDWTECELSGYGKHEALSPFYSERLKEAHVRLYPSSRCTSQHLLNRTVTDNMLCAGDTRSGGPQANLHDACQGDSGGPLVCLNDGRMTLVGIISWGLGCGQKDVPGVYTKVTNYLDWIRDNMRP
On to B1, for which the “conversion of one-chain delta-plasminogen into two-chain delta-plasmin (reduced SDS-PAGE)” value is “delta-plasminogen indeed can be activated by all three plasminogen activators”.
